{"source": "paper PMC5585231", "about": "“Endocytic sorting motif interactions involved in Nef-mediated downmodulation of CD4 and CD3” (Nature Communications, 2017)", "molecular_target": "T1, CD3 ζ SNID2 peptide (22-mer) (human)", "T1 construct": "also called second ITAM motif of CD3 ζ; source: synthetic peptide (in house, Boc chemistry, RP-HPLC)", "T1 peptide": "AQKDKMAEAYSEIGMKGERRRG", "experiment": "ITC; Nef (typically 200 µM) injected stepwise from the syringe into 20 µM CD3 ζ peptide in the cell; 20 mM HEPES pH 8.0, 100 mM NaCl, 25 °C; MicroCal iTC200", "details": "both partners purified"}
{"binder": "SIVmac239 Nef (66-235) (domain or fragment, pGEX-4T1 with a TEV site; also called SIV-B; SIV Nef-B; source: E. coli BL21(DE3), purified (GSH resin, size exclusion chromatography)) MATPWRNPAEEREKLAYRKQNMDDIDEEDDDLVGVSVRPKVPLRTMSYKLAIDMSHFIKEKGGLEGIYYSARRHRILDIYLEKEEGIIPDWQDYTSGPGIRYPKTFGWLWKLVPVNVSDEAQEDEEHYLMHPAQTSQWDDPWGEVLAWKFDPTLAYTYEAYVRYPEEFGS", "values": [{"measurement": "stoichiometry N", "result": 1.07}]}
